Data: patent publication US6790610B2, “Alzheimer's disease, secretase, APP substrates therefor, and uses therefor” (Pharmacia & Upjohn Company, priority 1998, dated 2004)
Where a SMILES comes first, the peptide text is derived from it. [ ]: non-standard residue; d: D form. The star is where a group is joined. Sta = CC(C)C[C@H](N)[C@@H](O)CC(=O)O; Isovaleryl = CC(C)CC(=O)*

Legend:
[1] = molecular target: T1, Recombinant human Asp2(a) (Homo sapiens, UniProt P56817); assay: β-Secretase assay with synthetic peptide substrates (RP-HPLC); assay type: biochemical
T1 construct: made in house; β-octylglucoside membrane extract purified over Mono Q and Mono S
T1 sequence (P56817 46-501): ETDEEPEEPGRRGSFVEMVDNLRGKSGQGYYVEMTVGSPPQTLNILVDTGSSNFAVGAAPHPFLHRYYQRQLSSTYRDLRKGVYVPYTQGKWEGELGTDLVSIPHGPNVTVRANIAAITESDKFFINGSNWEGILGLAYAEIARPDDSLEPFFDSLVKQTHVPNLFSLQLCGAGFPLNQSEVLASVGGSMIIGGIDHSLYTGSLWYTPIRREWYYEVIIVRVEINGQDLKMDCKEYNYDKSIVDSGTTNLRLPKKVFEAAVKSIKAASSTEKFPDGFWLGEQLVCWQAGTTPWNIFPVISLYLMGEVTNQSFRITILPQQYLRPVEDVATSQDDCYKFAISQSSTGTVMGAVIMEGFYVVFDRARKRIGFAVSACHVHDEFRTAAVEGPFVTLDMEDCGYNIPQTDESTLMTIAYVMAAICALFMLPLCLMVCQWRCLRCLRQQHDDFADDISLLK
Description: Recombinant human Asp2(a) prepared in CHO cells and purified as described in Example 11 was used to assay Asp2(a) proteolytic activity directly. Activity assays for Asp2(a) were performed using synthetic peptide substrates containing either the wild-type APP β-secretase site (SEVKM ↓DAEFR; SEQ ID NO: 64), the Swedish KM→NL mutation (SEVNL↓DAEFR; SEQ ID NO: 63), or the Aβ40 and 42 γ-secretase sites (RRGGVV↓IA↓TVIVGER; SEQ ID NO: 65). Reactions were performed in 50 mM 2-[N-morpholino]ethane-sulfonate (“Na-MES,” pH 5.5) containing 1% β-octylglucoside, […] peptide substrate, and recombinant Asp2(a) (1-5 μg protein) for various times at 37° C. The reaction products were quantified by RP-HPLC using a linear gradient from 0-70 B over 30 minutes (A=0.1% TFA in water, B=0.1% TFA/10% water/90% AcCN). The elution profile was monitored by absorbance at 214 nm. […] Percent hydrolysis of the peptide substrate was calculated by comparing the integrated peak areas for the two product peptides and the starting material derived from the absorbance at 214 nm. […]
The specificity of the protease cleavage reaction was determined by performing the β-secretase assay in the presence of 8 μM pepstatin A and the presence of a cocktail of protease inhibitors (10 μM leupeptin, 10 μM E64, and 5 mM EDTA). […]

Hu-Asp2(b) = molecular target: T2, Hu-Asp2(b) (Homo sapiens, UniProt P56817); assay: β-Secretase proteolysis assay with Hu-Asp2(b); assay type: biochemical; conditions: identical assay conditions to Asp2(a)
T2 construct: made in house; host or cells: CHO-K1 transfected with pcDNA3.1(+)Hygro/Hu-Asp2(b); β-octylglucoside extract purified over Mono Q and Mono S
T2 sequence (P56817 46-476 isoform P56817-2): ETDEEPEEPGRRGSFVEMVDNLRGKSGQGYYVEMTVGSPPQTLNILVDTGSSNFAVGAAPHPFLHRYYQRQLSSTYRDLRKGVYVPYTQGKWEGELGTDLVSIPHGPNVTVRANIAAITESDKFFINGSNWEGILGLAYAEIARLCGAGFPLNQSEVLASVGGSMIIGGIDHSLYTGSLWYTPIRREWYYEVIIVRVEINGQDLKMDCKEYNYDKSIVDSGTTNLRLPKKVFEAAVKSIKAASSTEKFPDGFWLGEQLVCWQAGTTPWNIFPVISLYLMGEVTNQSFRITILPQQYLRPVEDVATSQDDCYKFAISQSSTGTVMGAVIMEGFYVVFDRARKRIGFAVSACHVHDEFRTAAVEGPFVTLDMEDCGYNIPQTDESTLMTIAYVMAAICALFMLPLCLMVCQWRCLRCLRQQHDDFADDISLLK
Description: Recombinant human Asp2(a) prepared in CHO cells and purified as described in Example 11 was used to assay Asp2(a) proteolytic activity directly. Activity assays for Asp2(a) were performed using synthetic peptide substrates containing either the wild-type APP β-secretase site (SEVKM ↓DAEFR; SEQ ID NO: 64), the Swedish KM→NL mutation (SEVNL↓DAEFR; SEQ ID NO: 63), or the Aβ40 and 42 γ-secretase sites (RRGGVV↓IA↓TVIVGER; SEQ ID NO: 65). Reactions were performed in 50 mM 2-[N-morpholino]ethane-sulfonate (“Na-MES,” pH 5.5) containing 1% β-octylglucoside, […] peptide substrate, and recombinant Asp2(a) (1-5 μg protein) for various times at 37° C. The reaction products were quantified by RP-HPLC using a linear gradient from 0-70 B over 30 minutes (A=0.1% TFA in water, B=0.1% TFA/10% water/90% AcCN). The elution profile was monitored by absorbance at 214 nm. In preliminary experiments, the two product peaks which eluted before the intact peptide substrate, were confirmed to have the sequence DAEFR (SEQ ID NO: 72)and SEVNL (SEQ.ID NO: 73) using both Edman sequencing and MADLI-TOF mass spectrometry. Percent hydrolysis of the peptide substrate was calculated by comparing the integrated peak areas for the two product peptides and the starting material derived from the absorbance at 214 nm. […]

Row | Compound | proteolysis relative to wild type APP peptide ([1]; after 6 hours, pH 5.5, 37° C.) | cleavage of peptide substrate (Hu-Asp2(b)) | sensitivity of proteolytic activity to inhibitor ([1]; 8 μM pepstatin A)
1 | SEVNLDAEFR (OTHER INFORMATION: Description of Artificial Sequence: synthetic) [Swedigh β-secretase peptide, synthetic peptide substrate containing the Swedish KM→NL mutation of the APP β-secretase site] | about 10 fold | cleaves | –
2 | CC(C)CC(=O)N[C@H](C(=O)N[C@H](C(=O)N[C@@H](CC(C)C)[C@@H](O)CC(=O)N[C@@H](C)C(=O)N[C@@H](CC(C)C)[C@@H](O)CC(=O)O)C(C)C)C(C)C [pepstatin A] (Isovaleryl-VV[Sta]A[Sta]-OH) | – | – | insensitive
